Tested on: K4 kissing-loop RNA reporter
Test: apparent KD of K4 kissing-loop reporter; higher = weaker reporter binding
Conditions: Eterna round: R107
Procedure: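 RNA-MaP round R107: designed RNA switches with theophylline, tryptophan, arginine or FMN aptamers are transcribed on-chip within common flanks. They are titrated with a labelled K4 kissing-loop RNA reporter in RNA-MaP buffer (100 mM Tris pH 7.5, 80 mM KCl, 4 mM MgCl2), without ligand or with the indicated ligand. Median apparent KD per design.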

[1] = input ligand: theophylline 20 uM
[2] = input ligand: tryptophan 2.4 mM
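Also: bound reporter read as fluorescence of individual clusters on recovered sequencing chips by microscopy, with normalized cluster intensities fitted with a binding model.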

Sequence: GCAAAGGCCCAUCGGAAUUCGAGACCAGCACGAGGACCGGUACGGCCGCCACUCGUGCAGUGAUGUUGCACGAAUGGGAAACCGC [Oninanso]
- apparent KD of K4 kissing-loop reporter (input ligand: FMN 200 uM): 112 nM
- apparent KD of K4 kissing-loop reporter (input ligand: arginine 13.2 mM): 103 nM
- apparent KD of K4 kissing-loop reporter (input ligand: none): 125 nM
- apparent KD of K4 kissing-loop reporter [1]: 118 nM
- apparent KD of K4 kissing-loop reporter [2]: 147 nM

Sequence: GCAACAUUGGCAGGAUAUCAUUCUGAGUGAUGUUCAGGGUUCAGCUAACGAAAGUUAGUUGUACCAUGAGAAGGGCUAAUGUUGC [Omei KL FMN B SS A v1]
- apparent KD of K4 kissing-loop reporter (input ligand: FMN 200 uM): 332 nM
- apparent KD of K4 kissing-loop reporter (input ligand: arginine 13.2 mM): 886 nM
- apparent KD of K4 kissing-loop reporter (input ligand: none): 1120 nM
- apparent KD of K4 kissing-loop reporter [1]: 1020 nM
- apparent KD of K4 kissing-loop reporter [2]: 1080 nM

Sequence: GCAACAUUGGCAGGAUAUCCUUCUCAGUGAUGUUGAGGGUUCAGCUAACGAAAGUUAGUUGUACCGGGAGAAGGGCUAAUGUUGC [Omei KL FMN B SS A v8]
- apparent KD of K4 kissing-loop reporter (input ligand: FMN 200 uM): 288 nM
- apparent KD of K4 kissing-loop reporter (input ligand: arginine 13.2 mM): 650 nM
- apparent KD of K4 kissing-loop reporter (input ligand: none): 1100 nM
- apparent KD of K4 kissing-loop reporter [1]: 913 nM
- apparent KD of K4 kissing-loop reporter [2]: 1240 nM

Sequence: GCAGUCCGGACGGCCGCCACUAUCCGUAAAGUGAUGUUUUACGAACAAUCGAUUGCAUAUCAGAAUAGGACCGGGUCCGUCGACC [theeternabot_sameState_KL_Trp_B_15]
- apparent KD of K4 kissing-loop reporter (input ligand: FMN 200 uM): 228 nM
- apparent KD of K4 kissing-loop reporter (input ligand: arginine 13.2 mM): 185 nM
- apparent KD of K4 kissing-loop reporter (input ligand: none): 212 nM
- apparent KD of K4 kissing-loop reporter [1]: 170 nM
- apparent KD of K4 kissing-loop reporter [2]: 201 nM

Sequence: GCAGUGAUGUUGCGGAUGUACAGUGGCGUGCGAGGACCGGUACGGCCGCCACUCGUACAGAACAAGCUAAUACAUCGAUAGGUGA [whbob_SS_Tryp_A_m1]
- apparent KD of K4 kissing-loop reporter (input ligand: FMN 200 uM): 493 nM
- apparent KD of K4 kissing-loop reporter (input ligand: arginine 13.2 mM): 294 nM
- apparent KD of K4 kissing-loop reporter (input ligand: none): 556 nM
- apparent KD of K4 kissing-loop reporter [1]: 516 nM
- apparent KD of K4 kissing-loop reporter [2]: 355 nM

Sequence: GCAUCAUGCUACGAUACCAGAAGUUCCCUUUAGUGUAGUGAUGUUGCAGAUAUUGCUUACUUCCCUUGGCAGCGUUUGACGGGUA [theeternabot_sameState_KL_Theo_B_35]
- apparent KD of K4 kissing-loop reporter (input ligand: FMN 200 uM): 256 nM
- apparent KD of K4 kissing-loop reporter (input ligand: arginine 13.2 mM): 205 nM
- apparent KD of K4 kissing-loop reporter (input ligand: none): 220 nM
- apparent KD of K4 kissing-loop reporter [1]: 335 nM
- apparent KD of K4 kissing-loop reporter [2]: 155 nM

Sequence: GCAUCCAUGGCAGGAUAUAGGUUCGUGGAGUGAUGUUCCAUAGCCCGAGUGAUGUUCGUUAUCCGCCUAGAAGGGCCGUGGAUGC [whbob_Ex_FMNB__2th214]
- apparent KD of K4 kissing-loop reporter (input ligand: FMN 200 uM): 248 nM
- apparent KD of K4 kissing-loop reporter (input ligand: arginine 13.2 mM): 184 nM
- apparent KD of K4 kissing-loop reporter (input ligand: none): 235 nM
- apparent KD of K4 kissing-loop reporter [1]: 192 nM
- apparent KD of K4 kissing-loop reporter [2]: 212 nM

Sequence: GCCAGUGAUGUUGGCAUUUCGAGCCAUGAAGGAGCGCACGGAAGUGCAGGUAGGUCGCAUGGUACUUAGGAUAUUAUCCUAAGUA [Antearxe]
- apparent KD of K4 kissing-loop reporter (input ligand: FMN 200 uM): 180 nM
- apparent KD of K4 kissing-loop reporter (input ligand: arginine 13.2 mM): 169 nM
- apparent KD of K4 kissing-loop reporter (input ligand: none): 224 nM
- apparent KD of K4 kissing-loop reporter [1]: 178 nM
- apparent KD of K4 kissing-loop reporter [2]: 144 nM

Sequence: GCCAGUGCGCGAAGGAGCGCCGUGACAGGUUACUGCCUUGGGCAGUGAUGUUGCUCAAUCUGGCAGGUAGGUCGCGUGCACUGGC
- apparent KD of K4 kissing-loop reporter (input ligand: FMN 200 uM): 212 nM
- apparent KD of K4 kissing-loop reporter (input ligand: arginine 13.2 mM): 184 nM
- apparent KD of K4 kissing-loop reporter (input ligand: none): 166 nM
- apparent KD of K4 kissing-loop reporter [1]: 204 nM
- apparent KD of K4 kissing-loop reporter [2]: 197 nM

Sequence: GCCCGGGCGAGUGAUGUUCGCCCACGUGAUACCAGUGCCAUCCAACACCCUUGGCAGCACGCGGGCAGUGAUGUUGCCCUUGUAU [Exclusion Theophylline A GF 4]
- apparent KD of K4 kissing-loop reporter (input ligand: FMN 200 uM): 115 nM
- apparent KD of K4 kissing-loop reporter (input ligand: arginine 13.2 mM): 110 nM
- apparent KD of K4 kissing-loop reporter (input ligand: none): 122 nM
- apparent KD of K4 kissing-loop reporter [1]: 138 nM
- apparent KD of K4 kissing-loop reporter [2]: 111 nM

Sequence: GCCGCAAGGAUAGCAGCAAUAGGCGCUCGCUAGGAUAUCUGGAAACAGAGAAGGAGCUGGAGUGAUGUUUUACCUCCUAAAAUUA
- apparent KD of K4 kissing-loop reporter (input ligand: FMN 200 uM): 517 nM
- apparent KD of K4 kissing-loop reporter (input ligand: arginine 13.2 mM): 1900 nM
- apparent KD of K4 kissing-loop reporter (input ligand: none): 682 nM
- apparent KD of K4 kissing-loop reporter [1]: 210 nM
- apparent KD of K4 kissing-loop reporter [2]: 1070 nM

Reference: the supplement of paper PMC9170038
